US20020168748

Tests used:
[1] = target: PKC1 tagged at its COOH-terminus with the HA epitope (PKC1^HA) (UniProt P24583)
[2] = target: 1,3-β-glucan synthase (GS) complex (UniProt P38631)
Sequence of 1,3-β-glucan synthase (GS) complex (P38631 whole entry, looked up, one chain of several): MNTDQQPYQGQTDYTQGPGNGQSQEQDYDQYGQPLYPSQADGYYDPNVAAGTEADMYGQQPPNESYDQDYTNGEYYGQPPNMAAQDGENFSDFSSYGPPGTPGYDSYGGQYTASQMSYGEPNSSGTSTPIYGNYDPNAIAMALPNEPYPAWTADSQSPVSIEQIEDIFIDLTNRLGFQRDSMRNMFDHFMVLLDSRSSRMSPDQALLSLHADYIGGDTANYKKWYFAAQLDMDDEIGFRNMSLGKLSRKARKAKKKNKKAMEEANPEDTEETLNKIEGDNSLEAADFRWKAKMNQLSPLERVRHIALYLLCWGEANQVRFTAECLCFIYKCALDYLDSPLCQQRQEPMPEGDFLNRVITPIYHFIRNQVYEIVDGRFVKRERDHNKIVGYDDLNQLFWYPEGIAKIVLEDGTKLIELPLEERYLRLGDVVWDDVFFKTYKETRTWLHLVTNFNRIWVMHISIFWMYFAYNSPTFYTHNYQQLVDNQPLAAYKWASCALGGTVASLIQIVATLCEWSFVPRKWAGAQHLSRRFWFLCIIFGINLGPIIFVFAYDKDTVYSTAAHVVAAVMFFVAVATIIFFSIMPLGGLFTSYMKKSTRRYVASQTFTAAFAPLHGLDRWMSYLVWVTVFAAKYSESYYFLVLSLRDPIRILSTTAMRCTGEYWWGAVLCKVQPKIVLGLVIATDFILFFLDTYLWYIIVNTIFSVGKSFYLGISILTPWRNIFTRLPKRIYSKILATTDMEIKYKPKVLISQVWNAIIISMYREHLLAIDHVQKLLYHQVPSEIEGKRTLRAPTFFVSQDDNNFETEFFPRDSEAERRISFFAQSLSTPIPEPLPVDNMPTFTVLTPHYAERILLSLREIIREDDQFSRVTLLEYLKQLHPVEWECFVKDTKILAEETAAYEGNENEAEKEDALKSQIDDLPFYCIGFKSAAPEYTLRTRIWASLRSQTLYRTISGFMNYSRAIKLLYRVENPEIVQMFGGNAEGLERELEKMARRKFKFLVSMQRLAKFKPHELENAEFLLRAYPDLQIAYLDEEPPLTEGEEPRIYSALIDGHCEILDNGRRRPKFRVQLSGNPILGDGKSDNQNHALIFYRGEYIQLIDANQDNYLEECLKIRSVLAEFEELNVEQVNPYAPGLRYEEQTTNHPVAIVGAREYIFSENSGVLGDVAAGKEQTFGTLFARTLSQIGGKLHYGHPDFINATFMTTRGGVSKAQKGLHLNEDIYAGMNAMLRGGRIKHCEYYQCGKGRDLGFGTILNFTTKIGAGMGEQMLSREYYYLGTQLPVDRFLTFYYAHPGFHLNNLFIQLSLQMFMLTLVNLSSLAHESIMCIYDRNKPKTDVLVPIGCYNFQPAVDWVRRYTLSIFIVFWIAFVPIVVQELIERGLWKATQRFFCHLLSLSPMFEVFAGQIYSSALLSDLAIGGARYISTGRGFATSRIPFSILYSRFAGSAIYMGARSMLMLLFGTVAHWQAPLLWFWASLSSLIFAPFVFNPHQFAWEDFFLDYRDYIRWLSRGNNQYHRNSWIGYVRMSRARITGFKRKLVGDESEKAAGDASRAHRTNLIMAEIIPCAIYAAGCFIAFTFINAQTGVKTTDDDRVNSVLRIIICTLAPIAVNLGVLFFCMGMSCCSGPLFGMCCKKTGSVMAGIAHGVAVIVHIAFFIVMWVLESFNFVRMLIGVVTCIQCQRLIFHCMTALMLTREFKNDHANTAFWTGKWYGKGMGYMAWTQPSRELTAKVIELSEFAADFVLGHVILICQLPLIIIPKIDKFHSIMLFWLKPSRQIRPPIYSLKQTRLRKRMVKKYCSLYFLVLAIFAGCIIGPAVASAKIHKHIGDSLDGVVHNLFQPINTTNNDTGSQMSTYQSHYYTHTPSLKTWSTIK

Sequence of PKC1 tagged at its COOH-terminus with the HA epitope (PKC1^HA) (P24583 whole entry): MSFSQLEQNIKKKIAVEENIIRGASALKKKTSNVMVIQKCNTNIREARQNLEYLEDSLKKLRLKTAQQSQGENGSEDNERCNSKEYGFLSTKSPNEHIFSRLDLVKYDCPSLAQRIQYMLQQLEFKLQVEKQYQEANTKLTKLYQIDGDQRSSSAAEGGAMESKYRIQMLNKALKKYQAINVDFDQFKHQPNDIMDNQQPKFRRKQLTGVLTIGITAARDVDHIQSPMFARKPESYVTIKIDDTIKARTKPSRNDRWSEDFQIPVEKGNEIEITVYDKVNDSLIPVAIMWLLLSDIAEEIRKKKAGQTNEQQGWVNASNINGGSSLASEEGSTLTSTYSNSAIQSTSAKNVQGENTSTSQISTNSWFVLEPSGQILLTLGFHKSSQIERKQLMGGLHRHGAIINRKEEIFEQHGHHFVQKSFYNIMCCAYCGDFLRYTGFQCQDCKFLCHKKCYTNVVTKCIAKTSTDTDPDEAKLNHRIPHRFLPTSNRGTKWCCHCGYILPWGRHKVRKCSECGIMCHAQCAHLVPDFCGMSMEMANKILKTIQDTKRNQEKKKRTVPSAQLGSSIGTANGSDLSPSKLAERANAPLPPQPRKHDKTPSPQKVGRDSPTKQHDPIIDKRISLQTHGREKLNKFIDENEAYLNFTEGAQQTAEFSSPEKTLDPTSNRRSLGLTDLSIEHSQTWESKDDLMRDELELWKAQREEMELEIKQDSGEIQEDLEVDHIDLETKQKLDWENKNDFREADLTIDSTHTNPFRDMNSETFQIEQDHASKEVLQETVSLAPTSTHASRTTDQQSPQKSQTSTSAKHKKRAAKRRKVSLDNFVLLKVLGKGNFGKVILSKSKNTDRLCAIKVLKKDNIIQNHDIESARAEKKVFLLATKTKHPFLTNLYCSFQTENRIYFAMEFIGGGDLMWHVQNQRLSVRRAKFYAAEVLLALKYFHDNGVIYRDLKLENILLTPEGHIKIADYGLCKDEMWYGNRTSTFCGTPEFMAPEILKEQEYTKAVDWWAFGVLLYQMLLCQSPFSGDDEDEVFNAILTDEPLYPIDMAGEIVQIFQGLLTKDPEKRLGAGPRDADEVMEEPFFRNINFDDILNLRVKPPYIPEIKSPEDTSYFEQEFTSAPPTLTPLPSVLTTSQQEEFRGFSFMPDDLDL

For Recombinant GST-Cdc42, which “Phosphorylation of synthetic Bck1 peptide by PKC1^HA” value [1] is on record?
The value was “GST-Cdc42 did not confer cofactor-dependent stimulation on PKC1”.

For “Recombinant mutant Rho1 (G19V), constitutively active GST-Rho1”, which “GS activity in the membrane fraction of the cal1-1 mutant” value [2] is on record?
Its value is “GS activity was restored by the addition of constitutively activated Rho1”.
